From publication PMC2656774 (Cell, 2009)

Target: human eIF4A1, full-length (human, UniProt P60842 1-406)
Test: SPR

Chain of human eIF4A1, full-length (P60842 whole entry): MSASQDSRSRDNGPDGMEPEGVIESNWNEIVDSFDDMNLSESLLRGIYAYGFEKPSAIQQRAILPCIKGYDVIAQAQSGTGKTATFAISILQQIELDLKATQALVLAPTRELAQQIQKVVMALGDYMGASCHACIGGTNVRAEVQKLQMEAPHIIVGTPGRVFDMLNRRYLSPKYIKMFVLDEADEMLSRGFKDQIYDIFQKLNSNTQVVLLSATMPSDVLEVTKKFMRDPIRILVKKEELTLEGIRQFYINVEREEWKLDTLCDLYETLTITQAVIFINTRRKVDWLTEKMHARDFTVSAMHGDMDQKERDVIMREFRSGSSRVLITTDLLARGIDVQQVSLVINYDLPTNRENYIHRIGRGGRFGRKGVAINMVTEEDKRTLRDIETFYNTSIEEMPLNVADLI

- binding result: binds
B1: human eIF4H isoform 2 (natural protein)
chain: not shown
